Measurements published in patent publication US20220242958A1 (published 2022).

T1: recombinant IL-3Rα ectodomain (UniProt P26951 19-305, limits assumed)
T1 construct: extracellular domain; also called IL-3Ra ectodomain; recombinant IL-3Ra
T1 sequence (looked up): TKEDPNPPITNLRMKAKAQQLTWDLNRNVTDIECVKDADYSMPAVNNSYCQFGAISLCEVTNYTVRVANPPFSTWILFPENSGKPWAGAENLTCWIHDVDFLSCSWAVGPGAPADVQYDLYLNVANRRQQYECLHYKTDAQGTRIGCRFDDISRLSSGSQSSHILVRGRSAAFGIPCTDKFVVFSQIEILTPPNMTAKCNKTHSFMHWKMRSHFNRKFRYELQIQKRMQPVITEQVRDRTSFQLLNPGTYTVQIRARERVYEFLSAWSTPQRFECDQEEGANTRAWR


Experiments:
[1] = target: T1, recombinant IL-3Rα ectodomain; assay: ELISA, recombinant IL-3Ra
[2] = target: T2, human CD4, cell-expressed (human, UniProt P01730 26-458); assay: FACS, MOLM-13 cells
T2 construct: whole, on cells

[3] = target: human CXCR4 (on cells, membrane extracts or viral lipoparticles) (human, UniProt P61073 1-352); assay: cell-based or functional assay
Chain of human CXCR4 (on cells, membrane extracts or viral lipoparticles) (P61073 whole entry): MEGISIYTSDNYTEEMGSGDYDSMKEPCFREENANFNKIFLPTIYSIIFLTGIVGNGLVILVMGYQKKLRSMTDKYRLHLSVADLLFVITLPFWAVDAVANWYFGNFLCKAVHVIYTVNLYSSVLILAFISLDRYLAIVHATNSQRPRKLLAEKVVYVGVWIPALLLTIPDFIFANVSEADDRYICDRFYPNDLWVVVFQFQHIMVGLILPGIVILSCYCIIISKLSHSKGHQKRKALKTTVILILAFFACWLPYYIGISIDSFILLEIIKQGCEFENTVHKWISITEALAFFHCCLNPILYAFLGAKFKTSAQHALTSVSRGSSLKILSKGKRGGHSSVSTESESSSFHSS

Binder | binding result [1] | binding result [2] | Fold inc. vs anti-CXCR4 building block, Jurkat E6-1 [3] [fold] | Fold inc. vs anti-CXCR4 building block, MOLM-13 [3] [fold] | IC50, CXCL-12 induced chemotaxis, Jurkat E6-1 [3] [nM] | IC50, CXCL-12 induced chemotaxis, MOLM-13 [3] [nM]
57A07-281F12 (A0110057A07-35GS-4CXCR281F12(Q108L)) (bispecific antibody, the entry carries a c-myc-His6 tag; also made as Flag3-His6-tagged protein; also called CD123#1-CXCR4#2; BI#10/21) EVQLVESGGGLVQAGGSLRLSCAASGSIFSGNVMGWYRRQAPGKEREWVAAIASGGSIYYRDSVKGRFTISRDNAKNTVYLQMNSLKPEDTAVYYCNSHPPTLPYWGQGTLVTVSSGGGGSGGGGSGGGGSGGGGSGGGGSGGGGSGGGGSEVQLVESGGGLVQAGDSLRLSCAASGRAFSRYAMGWFRQAPGKEREFVAAIGWGPSKTNYADSVKGRFTISRDNAKNTVYLQMNTLKPEDTAVYSCAAKFVNTDSTWSRSEMYTYWGQGTLVTVSSAAAEQKLISEEDLNGAAHHHHHH | binds |  |  |  |  | 
55A01-281F12 (A0110055A01-35GS-4CXCR281F12(Q108L)) (bispecific antibody, the entry carries a c-myc-His6 tag; also made as Flag3-His6-tagged protein; also called CD123#2-CXCR4#2; BI#15/24) EVQLVESGGGSVQAGGSLRLSCTTSGRALNMYVMGWFRQAPGNEREFVAATSSSGGSTSYPDSVKGRFTISRDNAKNTVYLQMNSLKPEDTAAYRCAASPYVSTPTMNILEEYRYWGQGTLVTVSSGGGGSGGGGSGGGGSGGGGSGGGGSGGGGSGGGGSEVQLVESGGGLVQAGDSLRLSCAASGRAFSRYAMGWFRQAPGKEREFVAAIGWGPSKTNYADSVKGRFTISRDNAKNTVYLQMNTLKPEDTAVYSCAAKFVNTDSTWSRSEMYTYWGQGTLVTVSSAAAEQKLISEEDLNGAAHHHHHH | binds |  |  |  |  | 
CD4#8-IL23R#20 (bispecific antibody, also called BI#44; T023200044) EVQLVESGGGSVQPGGSLTLSCGTSGRTFNVMGWFRQAPGKEREFVAAVRWSSTGIYYTQYADSVKSRFTISRDNAKNTVYLEMNSLKPEDTAVYYCAADTYNSNPARWDGYDFRGQGTLVTVSSGGGGSGGGGSGGGGSGGGGSGGGGSGGGGSGGGGSEVQLVESGGGLVQAGGSLRLSCAASGRTFSSYAMGWFRQAPGKDREFVAAISWIGESTYYADSVKGRFTISRDNAKNTVYLRMNSLKPEDTAVYYCAADLYYTAYVAAADEYDYWGQGTLVTVSS |  | binds |  |  |  | 
14D09-55A01 (4CXCR014D09(Q108L)-35GS-A0110055A01) (bispecific antibody, the entry carries a c-myc-His6 tag; also made as Flag3-His6-tagged protein; also called CXCR4#1-CD123#2; BI#7/19) EVQLVESGGGLVQAGGSLRLSCVASGISSSKRNMGWYRQAPGKQRESVATISSGGNKDYTDAVKDRFTISRDTTKNTVYLQMNSLKPEDTAVYYCKIEAGTGWATRRGYTYWGQGTLVTVSSGGGGSGGGGSGGGGSGGGGSGGGGSGGGGSGGGGSEVQLVESGGGSVQAGGSLRLSCTTSGRALNMYVMGWFRQAPGNEREFVAATSSSGGSTSYPDSVKGRFTISRDNAKNTVYLQMNSLKPEDTAAYRCAASPYVSTPTMNILEEYRYWGQGTLVTVSSAAAEQKLISEEDLNGAAHHHHHH | binds |  | 0.87 | 2.39 | 12 | 3.6
14D09-57A07 (4CXCR014D09(Q108L)-35GS-A0110057A07) (bispecific antibody, the entry carries a c-myc-His6 tag; also made as Flag3-His6-tagged protein; also called CXCR4#1-CD123#1; BI#16/20) EVQLVESGGGLVQAGGSLRLSCVASGISSSKRNMGWYRQAPGKQRESVATISSGGNKDYTDAVKDRFTISRDTTKNTVYLQMNSLKPEDTAVYYCKIEAGTGWATRRGYTYWGQGTLVTVSSGGGGSGGGGSGGGGSGGGGSGGGGSGGGGSGGGGSEVQLVESGGGLVQAGGSLRLSCAASGSIFSGNVMGWYRRQAPGKEREWVAAIASGGSIYYRDSVKGRFTISRDNAKNTVYLQMNSLKPEDTAVYYCNSHPPTLPYWGQGTLVTVSSAAAEQKLISEEDLNGAAHHHHHH | binds |  | 0.69 | 2.39 | 15 | 3.6
CD4#8-IL12Rb1#30 (bispecific antibody, also called BI#40; T023200040) EVQLVESGGGSVQPGGSLTLSCGTSGRTFNVMGWFRQAPGKEREFVAAVRWSSTGIYYTQYADSVKSRFTISRDNAKNTVYLEMNSLKPEDTAVYYCAADTYNSNPARWDGYDFRGQGTLVTVSSGGGGSGGGGSGGGGSGGGGSGGGGSGGGGSGGGGSEVQLVESGGGLVQTGGSLRLSCAASGRTPRLVAMGWFRQTPGKEREFVGEIILSKGFTYYADSVKGRFTISRVNAKNTITMYLQMNSLKSEDTAVYYCAGRQNWSGSPARTNEYEYWGQGTLVTVSS |  | binds |  |  |  | 
CD4#8-IL12Rb1#31 (bispecific antibody, also called BI#41; T023200041) EVQLVESGGGSVQPGGSLTLSCGTSGRTFNVMGWFRQAPGKEREFVAAVRWSSTGIYYTQYADSVKSRFTISRDNAKNTVYLEMNSLKPEDTAVYYCAADTYNSNPARWDGYDFRGQGTLVTVSSGGGGSGGGGSGGGGSGGGGSGGGGSGGGGSGGGGSEVQLVESGGGLVQTGGSLRLSCAASGRTPSIIAMGWFRQTPGKEREFVGEIILSKGFTYYADSVKGRFTISRANAKNTITMYLQMNSLKSEDTAVYYCAARQNWSGNPTRTNEYEYWGQGTLVTVSS |  | binds |  |  |  | 
55A01-14D09 (A0110055A01-35GS-4CXCR014D09(Q108L)) (bispecific antibody, the entry carries a c-myc-His6 tag; also made as Flag3-His6-tagged protein; also called CD123#2-CXCR4#1; BI#8/22) EVQLVESGGGSVQAGGSLRLSCTTSGRALNMYVMGWFRQAPGNEREFVAATSSSGGSTSYPDSVKGRFTISRDNAKNTVYLQMNSLKPEDTAAYRCAASPYVSTPTMNILEEYRYWGQGTLVTVSSGGGGSGGGGSGGGGSGGGGSGGGGSGGGGSGGGGSEVQLVESGGGLVQAGGSLRLSCVASGISSSKRNMGWYRQAPGKQRESVATISSGGNKDYTDAVKDRFTISRDTTKNTVYLQMNSLKPEDTAVYYCKIEAGTGWATRRGYTYWGQGTLVTVSSAAAEQKLISEEDLNGAAHHHHHH | binds |  | 0.12 | 0.03 | 85 | 290
281F12-57A07 (4CXCR281F12(Q108L)-35GS-A0110057A07) (bispecific antibody, the entry carries a c-myc-His6 tag; also made as Flag3-His6-tagged protein; also called CXCR4#2-CD123#1; BI#4/18) EVQLVESGGGLVQAGDSLRLSCAASGRAFSRYAMGWFRQAPGKEREFVAAIGWGPSKTNYADSVKGRFTISRDNAKNTVYLQMNTLKPEDTAVYSCAAKFVNTDSTWSRSEMYTYWGQGTLVTVSSGGGGSGGGGSGGGGSGGGGSGGGGSGGGGSGGGGSEVQLVESGGGLVQAGGSLRLSCAASGSIFSGNVMGWYRRQAPGKEREWVAAIASGGSIYYRDSVKGRFTISRDNAKNTVYLQMNSLKPEDTAVYYCNSHPPTLPYWGQGTLVTVSSAAAEQKLISEEDLNGAAHHHHHH | binds |  | 2.55 | 12.6 | 38 | 6.83
CD4#8-IL23R#19 (bispecific antibody, also called BI#45; T023200045) EVQLVESGGGSVQPGGSLTLSCGTSGRTFNVMGWFRQAPGKEREFVAAVRWSSTGIYYTQYADSVKSRFTISRDNAKNTVYLEMNSLKPEDTAVYYCAADTYNSNPARWDGYDFRGQGTLVTVSSGGGGSGGGGSGGGGSGGGGSGGGGSGGGGSGGGGSEVQLVESGGGLVQPGGSLTLSCVASGRTFSTDVMGWFRQAPGKEREFVAAHRTSGISTVYAASVKGRFTISRDNAKNTVYLGMKSLKPEDTAVYVCAAGSDASGGYDYWGQGTLVTVSS |  | binds |  |  |  | 
IL12Rb1#30-CD4#8 (bispecific antibody, also called BI#46; T023200046) EVQLVESGGGLVQTGGSLRLSCAASGRTPRLVAMGWFRQTPGKEREFVGEIILSKGFTYYADSVKGRFTISRVNAKNTITMYLQMNSLKSEDTAVYYCAGRQNWSGSPARTNEYEYWGQGTLVTVSSGGGGSGGGGSGGGGSGGGGSGGGGSGGGGSGGGGSEVQLVESGGGSVQPGGSLTLSCGTSGRTFNVMGWFRQAPGKEREFVAAVRWSSTGIYYTQYADSVKSRFTISRDNAKNTVYLEMNSLKPEDTAVYYCAADTYNSNPARWDGYDFRGQGTLVTVSS |  | binds |  |  |  | 
IL12Rb1#31-CD4#8 (bispecific antibody, also called BI#47; T023200047) EVQLVESGGGLVQTGGSLRLSCAASGRTPSIIAMGWFRQTPGKEREFVGEIILSKGFTYYADSVKGRFTISRANAKNTITMYLQMNSLKSEDTAVYYCAARQNWSGNPTRTNEYEYWGQGTLVTVSSGGGGSGGGGSGGGGSGGGGSGGGGSGGGGSGGGGSEVQLVESGGGSVQPGGSLTLSCGTSGRTFNVMGWFRQAPGKEREFVAAVRWSSTGIYYTQYADSVKSRFTISRDNAKNTVYLEMNSLKPEDTAVYYCAADTYNSNPARWDGYDFRGQGTLVTVSS |  | binds |  |  |  | 
IL23R#20-CD4#8 (bispecific antibody, also called BI#43; T023200043) EVQLVESGGGLVQAGGSLRLSCAASGRTFSSYAMGWFRQAPGKDREFVAAISWIGESTYYADSVKGRFTISRDNAKNTVYLRMNSLKPEDTAVYYCAADLYYTAYVAAADEYDYWGQGTLVTVSSGGGGSGGGGSGGGGSGGGGSGGGGSGGGGSGGGGSEVQLVESGGGSVQPGGSLTLSCGTSGRTFNVMGWFRQAPGKEREFVAAVRWSSTGIYYTQYADSVKSRFTISRDNAKNTVYLEMNSLKPEDTAVYYCAADTYNSNPARWDGYDFRGQGTLVTVSS |  | binds |  |  |  | 
57A07-14D09 (A0110057A07-35GS-4CXCR014D09(Q108L)) (bispecific antibody, the entry carries a c-myc-His6 tag; for the cell assays the construct was recloned and made in Pichia as Flag3-His6-tagged protein; also called CD123#1-CXCR4#1; BI#11/23) EVQLVESGGGLVQAGGSLRLSCAASGSIFSGNVMGWYRRQAPGKEREWVAAIASGGSIYYRDSVKGRFTISRDNAKNTVYLQMNSLKPEDTAVYYCNSHPPTLPYWGQGTLVTVSSGGGGSGGGGSGGGGSGGGGSGGGGSGGGGSGGGGSEVQLVESGGGLVQAGGSLRLSCVASGISSSKRNMGWYRQAPGKQRESVATISSGGNKDYTDAVKDRFTISRDTTKNTVYLQMNSLKPEDTAVYYCKIEAGTGWATRRGYTYWGQGTLVTVSSAAAEQKLISEEDLNGAAHHHHHH | binds |  | 0.05 |  | 210 | 
281F12-55A01 (4CXCR281F12(Q108L)-35GS-A0110055A01) (bispecific antibody, the entry carries a c-myc-His6 tag; also made as Flag3-His6-tagged protein; also called CXCR4#2-CD123#2; BI#3/17) EVQLVESGGGLVQAGDSLRLSCAASGRAFSRYAMGWFRQAPGKEREFVAAIGWGPSKTNYADSVKGRFTISRDNAKNTVYLQMNTLKPEDTAVYSCAAKFVNTDSTWSRSEMYTYWGQGTLVTVSSGGGGSGGGGSGGGGSGGGGSGGGGSGGGGSGGGGSEVQLVESGGGSVQAGGSLRLSCTTSGRALNMYVMGWFRQAPGNEREFVAATSSSGGSTSYPDSVKGRFTISRDNAKNTVYLQMNSLKPEDTAAYRCAASPYVSTPTMNILEEYRYWGQGTLVTVSSAAAEQKLISEEDLNGAAHHHHHH | binds |  | 1.13 | 10.9 | 86 | 7.85
